Results reported in paper PMC10083196 (Cell Reports, 2023).

Key:
[1] = target: T1, SARS-CoV-2 spike receptor-binding domain (soluble RBD, residues 319–591) (SARS-CoV-2, UniProt P0DTC2); test: SPR
[2] = target: T1, SARS-CoV-2 spike receptor-binding …; test: crystal structure

B1: 2A10 IgG (antibody, V domains shown)
VH: QVQLVESGGGLIQPGGSLRLSCAASEFIVSSNYMSWVRQAPGKGLEWVSLLYSGGTTYYADSVKGRFTISRDNSKNTLFLQMNSLRAEDTAMYYCARDRGPWLHDYWGQGTLVTVSS
VL: DIVMTQSPSSLSASVGDRVTITCQASQDINKYCNWYQQKPGKAPKLLIYDASNLETGVPSRFSGSGSGTDFTFTINSLQPEDIATYYCQQYDNLPPTFGGGTKVEIK
B1: binds [1].

B2: 2A10 Fab (Fab, V domains shown)
VH: QVQLVESGGGLIQPGGSLRLSCAASEFIVSSNYMSWVRQAPGKGLEWVSLLYSGGTTYYADSVKGRFTISRDNSKNTLFLQMNSLRAEDTAMYYCARDRGPWLHDYWGQGTLVTVSS
VL: DIVMTQSPSSLSASVGDRVTITCQASQDINKYCNWYQQKPGKAPKLLIYDASNLETGVPSRFSGSGSGTDFTFTINSLQPEDIATYYCQQYDNLPPTFGGGTKVEIK
B2: binds [2].

B3: 1H2 IgG (antibody, V domains shown)
VH: QVQLQQSGGGLVQPGRSLRLSCAASGFTFDDYAMHWVRQAPGKGLEWVSGITWNSGTIGYADSVKGRFTISRDNAKNSLYLQMRSLRAEDTALYYCAKDSGRKLLWGREDYYMGVWGKGTTVTV
VL: SYELTQPPSVSVAPGKTARITCGGSNIGSKSVHWYQQKPGQAPVLVIYYDSDRPSGIPERFSGSNSGNTATLTISRVEAGDEADYYCQVWDSSSDHVVFGG
B3: binds [1].
